Molecular target: MMP-2 sensor (1A5 variant backbone with the human MMP-2 recognition site PLGMWSR, N-terminal GST tag with TEV site, C-terminal 5xHQ tag)

B1: Activated MMP-2 (Anaspec) (protein)
chain: YNFFPRKPKWDKNQITYRIIGYTPDLDPETVDDAFARAFQVWSDVTPLRFSRIHDGEADIMINFGRWEHGDGYPFDGKDGLLAHAFAPGTGVGGDSHFDDDELWTLGEGQVVRVKYGNADGEYCKFPFLFNGKEYNSCTDTGRSDGFLWCSTTYNFEKDGKYGFCPHEALFTMGGNAEGQPCKFPFRFQGTSYDSCTTEGRTDGYRWCGTTEDYDRDKKYGFCPETAMSTVGGNSEGAPCVFPFTFLGNKYESCTSAGRSDGKMWCATTANYDDDRKWGFCPDQGYSLFLVAAHEFGHAMGLEHSQDPGALMAPIYTYTKNFRLSQDDIKGIQELYGASPDIDLGTGPTPTLGPVTPEICKQDIVFDGIAQIRGEIFFFKDRFIWRTVTPRDKPMGPLLVATFWPELPEKIDAVYEAPQEEKAVFFAGNEYWIYSASTLERGYPKPLTSLGLPPDVQRVDAAFNWSKNKKTYIFAGDKFWRYNEVKKKMDPGFPKLIADAWNAIPDNLDAVVDLQGGGHSYFFKGAYYLKLENQSLKSVKFGSIKSDWLGC
- luminescence, fold increase over control (background from MMP-2 sensor); least amount of MMP-2 detected: can be used to detect as little as 0.75 ng protein
